# Experimental data taken from patent US6998240B2, “Screen for selective inhibitors or activators of Smad protein function” (Wisconsin Alumni Research Foundation, priority 2001, dated 2006).
# Tests used:
# [1] = target: phosphorylated Smad2 (His-tagged, full length, from Sf9 cells co-infected with Alk5 T204D virus) (UniProt Q15796); experiment: HTRF competition against 500 nM biotinylated FAST peptide
# [2] = target: phosphorylated Smad2 (His-tagged, full length, from Sf9 cells co-infected with Alk5 T204D virus) (UniProt Q15796); experiment: HTRF, biotin-FAST binding to Smad2-P, no inhibitor
# [3] = target: T1, Phosphorylated Smad2/4 Complex (Homo sapiens, UniProt Q15796); experiment: microplate solid-phase assay, biotinylated GST-CBP, streptavidin-AP
# [4] = target: unphosphorylated Smad2 (His-tagged, full length) (UniProt Q15796); experiment: microplate solid-phase assay; Smad2 0.25 ug/well; biotinylated GST-CBP 1:500
# [5] = target: unphosphorylated Smad2 (His-tagged, full length) (UniProt Q15796); experiment: microplate solid-phase assay; Smad2 0.50 ug/well; biotinylated GST-CBP 1:500
# [6] = target: unphosphorylated Smad2 (His-tagged, full length) (UniProt Q15796); experiment: microplate solid-phase assay; Smad2 0.25 ug/well; biotinylated GST-CBP 1:1000
# [7] = target: unphosphorylated Smad2 (His-tagged, full length) (UniProt Q15796); experiment: microplate solid-phase assay; Smad2 0.25 ug/well; biotinylated GST-CBP 1:2000
# [8] = target: unphosphorylated Smad2 (His-tagged, full length) (UniProt Q15796); experiment: microplate solid-phase assay; Smad2 0.50 ug/well; biotinylated GST-CBP 1:1000
# [9] = target: unphosphorylated Smad2 (His-tagged, full length) (UniProt Q15796); experiment: microplate solid-phase assay; Smad2 0.50 ug/well; biotinylated GST-CBP 1:2000
# [10] = target: T1, Phosphorylated Smad2/4 Complex; experiment: microplate solid-phase assay; Smad2P4 0.25 ug/well; biotinylated GST-CBP 1:500
# [11] = target: T1, Phosphorylated Smad2/4 Complex; experiment: microplate solid-phase assay; Smad2P4 0.50 ug/well; biotinylated GST-CBP 1:500
# [12] = target: T1, Phosphorylated Smad2/4 Complex; experiment: microplate solid-phase assay; Smad2P4 0.125 ug/well; biotinylated GST-CBP 1:500
# [13] = target: T1, Phosphorylated Smad2/4 Complex; experiment: microplate solid-phase assay; Smad2P4 0.25 ug/well; biotinylated GST-CBP 1:1000
# [14] = target: T1, Phosphorylated Smad2/4 Complex; experiment: microplate solid-phase assay; Smad2P4 0.25 ug/well; biotinylated GST-CBP 1:2000
# [15] = target: T1, Phosphorylated Smad2/4 Complex; experiment: microplate solid-phase assay; Smad2P4 0.50 ug/well; biotinylated GST-CBP 1:1000
# [16] = target: T1, Phosphorylated Smad2/4 Complex; experiment: microplate solid-phase assay; Smad2P4 0.50 ug/well; biotinylated GST-CBP 1:2000
# [17] = target: T1, Phosphorylated Smad2/4 Complex; experiment: microplate solid-phase assay; Smad2P4 0.125 ug/well; biotinylated GST-CBP 1:1000
# [18] = target: T1, Phosphorylated Smad2/4 Complex; experiment: microplate solid-phase assay; Smad2P4 0.125 ug/well; biotinylated GST-CBP 1:2000
# [19] = target: unphosphorylated Smad2 (His-tagged, full length) (UniProt Q15796); experiment: microplate solid-phase assay; Smad2 0.25 ug/well; biotinylated GST-CBP 1:500, duplicate well
# [20] = target: unphosphorylated Smad2 (His-tagged, full length) (UniProt Q15796); experiment: microplate solid-phase assay; Smad2 0.50 ug/well; biotinylated GST-CBP 1:500, duplicate well
# [21] = target: unphosphorylated Smad2 (His-tagged, full length) (UniProt Q15796); experiment: microplate solid-phase assay; Smad2 0.25 ug/well; biotinylated GST-CBP 1:1000, duplicate well
# [22] = target: unphosphorylated Smad2 (His-tagged, full length) (UniProt Q15796); experiment: microplate solid-phase assay; Smad2 0.25 ug/well; biotinylated GST-CBP 1:2000, duplicate well
# [23] = target: unphosphorylated Smad2 (His-tagged, full length) (UniProt Q15796); experiment: microplate solid-phase assay; Smad2 0.50 ug/well; biotinylated GST-CBP 1:1000, duplicate well
# [24] = target: unphosphorylated Smad2 (His-tagged, full length) (UniProt Q15796); experiment: microplate solid-phase assay; Smad2 0.50 ug/well; biotinylated GST-CBP 1:2000, duplicate well
# [25] = target: T1, Phosphorylated Smad2/4 Complex; experiment: microplate solid-phase assay; Smad2P4 0.25 ug/well; biotinylated GST-CBP 1:500, duplicate well
# [26] = target: T1, Phosphorylated Smad2/4 Complex; experiment: microplate solid-phase assay; Smad2P4 0.50 ug/well; biotinylated GST-CBP 1:500, duplicate well
# [27] = target: T1, Phosphorylated Smad2/4 Complex; experiment: microplate solid-phase assay; Smad2P4 0.125 ug/well; biotinylated GST-CBP 1:500, duplicate well
# [28] = target: T1, Phosphorylated Smad2/4 Complex; experiment: microplate solid-phase assay; Smad2P4 0.25 ug/well; biotinylated GST-CBP 1:1000, duplicate well
# [29] = target: T1, Phosphorylated Smad2/4 Complex; experiment: microplate solid-phase assay; Smad2P4 0.25 ug/well; biotinylated GST-CBP 1:2000, duplicate well
# [30] = target: T1, Phosphorylated Smad2/4 Complex; experiment: microplate solid-phase assay; Smad2P4 0.50 ug/well; biotinylated GST-CBP 1:1000, duplicate well
# [31] = target: T1, Phosphorylated Smad2/4 Complex; experiment: microplate solid-phase assay; Smad2P4 0.50 ug/well; biotinylated GST-CBP 1:2000, duplicate well
# [32] = target: T1, Phosphorylated Smad2/4 Complex; experiment: microplate solid-phase assay; Smad2P4 0.125 ug/well; biotinylated GST-CBP 1:1000, duplicate well
# [33] = target: T1, Phosphorylated Smad2/4 Complex; experiment: microplate solid-phase assay; Smad2P4 0.125 ug/well; biotinylated GST-CBP 1:2000, duplicate well
substance,measurement,setting,value
GST-trx-FAST fusion protein (FAST SIM peptide aptamer on thioredoxin scaffold) (from UniProt O75593 327-350) (designed binder),IC50,[1],250 nM
"biotinylated FAST peptide (24 mer, Smad interaction motif of human FAST) (from UniProt O75593 327-350)",Average Normalized Counts,[2],1880 counts
biotinylated GST-CBP protein (from UniProt P08515 1-218),fold more CBP bound than by an equivalent amount of unphosphorylated Smad,[3],> 30 fold
same,relative light units (RLU),[4],11100 RLU
same,relative light units (RLU),[5],26600 RLU
same,relative light units (RLU),[6],6680 RLU
same,relative light units (RLU),[7],6600 RLU
same,relative light units (RLU),[8],23000 RLU
same,relative light units (RLU),[9],11300 RLU
same,relative light units (RLU),[10],204000 RLU
same,relative light units (RLU),[11],358000 RLU
same,relative light units (RLU),[12],72000 RLU
same,relative light units (RLU),[13],181000 RLU
same,relative light units (RLU),[14],176000 RLU
same,relative light units (RLU),[15],306000 RLU
same,relative light units (RLU),[16],303000 RLU
same,relative light units (RLU),[17],82900 RLU
same,relative light units (RLU),[18],82200 RLU
same,relative light units (RLU),[19],8900 RLU
same,relative light units (RLU),[20],26300 RLU
same,relative light units (RLU),[21],7830 RLU
same,relative light units (RLU),[22],4340 RLU
same,relative light units (RLU),[23],23500 RLU
same,relative light units (RLU),[24],11000 RLU
same,relative light units (RLU),[25],191000 RLU
same,relative light units (RLU),[26],236000 RLU
same,relative light units (RLU),[27],74300 RLU
same,relative light units (RLU),[28],182000 RLU
same,relative light units (RLU),[29],162000 RLU
same,relative light units (RLU),[30],323000 RLU
same,relative light units (RLU),[31],285000 RLU
same,relative light units (RLU),[32],82300 RLU
same,relative light units (RLU),[33],85100 RLU
